Test [1] deals with T1, endogenous human EphB2 on cells or tissue (HT1080-GD vector control cells, colorectal cancer cell lines, … (human, UniProt P29323 19-1055)).
T1 construct: whole, on cells; also called vector control HT1080 cell line
T1 sequence (looked up): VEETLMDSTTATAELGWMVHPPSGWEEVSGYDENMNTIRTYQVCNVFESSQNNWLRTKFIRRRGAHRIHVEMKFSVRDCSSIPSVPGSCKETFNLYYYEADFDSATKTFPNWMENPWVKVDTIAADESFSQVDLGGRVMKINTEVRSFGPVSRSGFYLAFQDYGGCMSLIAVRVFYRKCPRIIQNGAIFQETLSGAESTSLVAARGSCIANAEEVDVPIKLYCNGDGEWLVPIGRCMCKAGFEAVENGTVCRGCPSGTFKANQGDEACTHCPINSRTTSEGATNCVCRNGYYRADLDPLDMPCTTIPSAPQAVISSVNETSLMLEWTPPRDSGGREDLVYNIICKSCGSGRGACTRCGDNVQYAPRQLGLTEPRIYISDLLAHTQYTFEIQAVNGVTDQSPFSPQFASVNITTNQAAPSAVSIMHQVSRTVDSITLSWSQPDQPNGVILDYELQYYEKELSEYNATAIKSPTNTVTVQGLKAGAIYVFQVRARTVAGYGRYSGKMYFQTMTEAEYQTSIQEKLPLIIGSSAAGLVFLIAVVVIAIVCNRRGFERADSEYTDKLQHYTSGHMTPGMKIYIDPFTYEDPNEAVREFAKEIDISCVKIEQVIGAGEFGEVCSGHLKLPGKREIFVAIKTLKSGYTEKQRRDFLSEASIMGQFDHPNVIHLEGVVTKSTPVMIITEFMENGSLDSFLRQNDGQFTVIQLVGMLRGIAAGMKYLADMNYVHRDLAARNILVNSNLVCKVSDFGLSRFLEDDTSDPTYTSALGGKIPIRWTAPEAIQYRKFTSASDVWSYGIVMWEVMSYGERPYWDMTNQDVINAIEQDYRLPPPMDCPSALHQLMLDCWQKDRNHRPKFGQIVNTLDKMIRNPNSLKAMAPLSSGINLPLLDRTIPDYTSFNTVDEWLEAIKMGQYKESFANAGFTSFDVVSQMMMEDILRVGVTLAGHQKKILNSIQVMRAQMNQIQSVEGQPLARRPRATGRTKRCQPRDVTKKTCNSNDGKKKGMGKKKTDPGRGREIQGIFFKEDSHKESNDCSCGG
Kind of test: Scatchard analysis, 125I-labeled MAb 2H9 with unlabeled MAb 2H9 on HT1080-GD cells, on ice; HT1080-GD cells, Scatchard analysis.

Test [2] deals with T1, endogenous human EphB2 on cells or …. Kind of test: saturation binding on HT1080-GD cells, HRP-conjugated secondary antibody, absorbance at 450 nm.
For test [3] the target is unchanged. Description: Scatchard analysis of 125I-labelled MAb 2H9 competed with unlabelled MAb 2H9 on HT1080-GD cells.
Test [4] has as its target T2, NH2-terminal GD epitope-tagged human EphB2 overexpressed on cells (HT1080-EphB2, SVT2-EphB2) (human, UniProt P29323 19-1055).
T2 construct: whole, on cells; HT1080-EphB2 cells also carry endogenous EphB2; also called full-length EphB2
T2 sequence (looked up): T1 sequence (looked up)
Kind of test: saturation binding on HT1080-EphB2 cells, HRP-conjugated secondary antibody, absorbance at 450 nm.

Test [5] deals with T3, polyhis-tagged human EphB2 (baculovirus-derived His8-tagged EphB2 receptor) (human, UniProt P29323 19-543).
T3 construct: extracellular domain; also called polyhis tagged EphB2; purified EphB2 immunogen; not shown: His8 tag
T3 sequence (looked up): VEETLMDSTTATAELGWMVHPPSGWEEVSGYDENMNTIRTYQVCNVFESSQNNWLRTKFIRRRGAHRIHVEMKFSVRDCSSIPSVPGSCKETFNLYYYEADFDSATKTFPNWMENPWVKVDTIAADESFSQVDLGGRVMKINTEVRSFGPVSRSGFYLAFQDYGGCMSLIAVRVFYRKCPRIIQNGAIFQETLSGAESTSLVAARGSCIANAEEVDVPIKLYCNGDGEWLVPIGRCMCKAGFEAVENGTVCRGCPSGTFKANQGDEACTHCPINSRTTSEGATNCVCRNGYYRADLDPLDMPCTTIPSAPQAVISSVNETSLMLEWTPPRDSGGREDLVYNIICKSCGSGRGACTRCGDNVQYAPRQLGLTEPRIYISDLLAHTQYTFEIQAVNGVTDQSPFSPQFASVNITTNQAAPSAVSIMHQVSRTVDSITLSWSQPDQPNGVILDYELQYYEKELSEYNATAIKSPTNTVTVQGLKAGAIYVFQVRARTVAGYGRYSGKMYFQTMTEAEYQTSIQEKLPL
Kind of test: SPR (BIAcore 3000), antibody immobilized on CM5 chip, polyhis-tagged EphB2 injected, 1:1 model. The protocol: Binding affinity of Mab 2H9 was determined by surface plasmon resonance using Pharmacia BIAcore® 3000 (BIAcore AB, Uppsala, Sweden) at room temperature (see, e.g., Morton et al. (1998) Methods in Enzymology, 295, 268-294). Anti-EphB2 antibodies were immobilized to the sensor chip (CM5) through primary amine groups. The carboxymethylated sensor chip surface matrix was activated by injecting 20 μl of a mixture of 0.025 M N-hydroxysuccinimide and 0.1 M N-ethyl-N′(dimethylaminopropyl) carbodiimide at 5 μl/min. 5-10 μl of 10 μg/ml solution of anti-EphB2 antibodies in 10 mM sodium acetate, pH 4.5, were injected at 5 μl/min. After coupling, unoccupied sites on the chip were blocked by injecting 20 μl of 1M ethanolamine, pH 8.5. The running buffer was PBS containing 0.05% polysorbate 20. For kinetic measurements, two-fold serial dilutions of polyhis-tagged EphB2 in running buffer were injected over the flow cells for 3 minutes at a flow rate of 30 μl/min and the bound polyhis tagged EphB2 was allow to dissociate for 20 minutes. The binding surface was regenerated by injecting 20 μl of 10 mM glycine-HCl (pH 1.5). […] There was no significant non-specific binding of polyhis tagged EphB2 to flow cell one. For calculate apparent binding affinity, data were analyzed using a 1:1 binding model using global fitting. The association and dissociation rate constants were fitted simultaneously (BIAevaluation software).

Test [6] has as its target T2, NH2-terminal GD epitope-tagged human …. Description: cell-based or functional assay.
For test [7] the target is unchanged. Kind of test: Scatchard analysis of 125I-labelled MAb 2H9 competed with unlabelled MAb 2H9 on HT1080-EphB2 cells.
For test [8] the target is unchanged. Kind of test: Scatchard analysis, 125I-labeled MAb 2H9 with unlabeled MAb 2H9 on HT1080-EphB2 cells, on ice.

B1: anti-EphB2 monoclonal antibody produced by hybridoma cell line 2H9.11.14 (ATCC PTA-6606) (antibody, IgG1, V domains shown)
VH: QVQLQQSGAELAKPGASVKMSCKASGYTFTSYWMHWVKQRPGQGLEWIGFINPSTGYTDYNQKFKDKATLTVKSSNTAYMQLSRLTSEDSAVYYCTRRLKLLRYAMDYWGQGTTLTVSA
VL: DIVMTQSPSSLSVSAGEKVTMNCKSSQSLLNSGNQENYLAWYQQKPGQPPKLLIYGASTRESGVPDRFTGSGSGTDFTLTISSVQAEDLAVYYCQNDHSYPFTFGAGTKVEIKR
notes: 125I-labelled in the Scatchard and uptake assays; also called Mab 2H9; MAb 2H9
Regarding B1, the Kd in test [1] is about 4 nM; in test [3], 4.4 nM; in test [5] it was 0.12 nM; in test [7], 4.1 nM; in test [8], about 4 nM. Moreover, the “EC50 (read off the curve)” value in test [2] and in test [4] was about 0.02 mg/L in each case. The koff in test [5] amounted to 1.03e-05 s⁻¹. Besides, the association rate constant (kon) in test [5] was determined as 82800 M⁻¹ s⁻¹. The “internalization of 125I-labeled MAb 2H9 by HT1080-EphB2 cells after shift to 37° C. for 1 hour” value in test [6] is about 2 fold.

B2: immunoconjugate 2H9-MC-vc-PAB-MMAE (antibody, mouse IgG1, V domains shown)
VH: B1 VH
VL: B1 VL
modifications: MC-vc-PAB-MMAE drug-linker covalently coupled to the antibody; sites and chain not stated
notes: also called MMAE-vc-2H9; 2H9-vc-MMAE
With B2, the “EC50 (read off the curve)” value in test [4] was about 0.02 mg/L. For the same molecule, in test [6], the “antibody concentration required for half-maximal cell killing (IC50), Cell Titer-Glo viability after 48 h” value is 0.006 mg/L.

The term Kd denotes the constant that tells how readily two partners part at equilibrium. A high value points to weaker binding. As a reminder, the EC50 (read off the curve) is the concentration giving half of the maximal effect. A higher EC50 (read off the curve) goes with a less potent agent. What is called koff is the first-order rate constant of dissociation. In general, kon refers to the second-order rate constant of association.

These data come from patent US20080254024A1 (Genentech, published 2008).
